Source: article PMC13570301, “Domain-dependent uncoupling of the co-chaperone and E3 ubiquitin ligase CHIP underlies heterogeneity in spinocerebellar ataxia 48” (The Journal of Biological Chemistry, 2026)

Assays:
[1] = biological target: the molecule itself; experiment: mass photometry; Refeyn OneMP; CHIP at 50 nM final (a subset also at 20 nM and 100 nM) in 20 mM HEPES pH 8.0, 200 mM NaCl; self-association, oligomeric states by mass
[2] = biological target: the molecule itself; experiment: as above; remark: listed apart in the source

B1: CHIP R225∗, recombinant, C-terminal His tag (enzyme, human, UniProt Q9UNE7-1 1-224, looked up)
chain: MKGKEEKEGGARLGAGGGSPEKSPSAQELKEQGNRLFVGRKYPEAAACYGRAITRNPLVAVYYTNRALCYLKMQQHEQALADCRRALELDGQSVKAHFFLGQCQLEMESYDEAIANLQRAYSLAKEQRLNFGDDIPSALRIAKKKRWNSIEERRIHQESELHSYLSRLIAAERERELEECQRNHEGDEDDSHVRAQQACIEAKHDKYMADMDELFSQVDEKRKK
notes: CHIP (STUB1), human, SCA48-associated nonsense variant R225∗ (stop in place of R225, U-box domain lost); source: PD-10 desalting for mass photometry, size exclusion for ubiquitination assays
Q: For B1, which “stoichiometry N” value [1] is on record?
A: 2

B2: CHIP P228S, recombinant, C-terminal His tag (enzyme, human, UniProt Q9UNE7-1 1-303, looked up)
chain: MKGKEEKEGGARLGAGGGSPEKSPSAQELKEQGNRLFVGRKYPEAAACYGRAITRNPLVAVYYTNRALCYLKMQQHEQALADCRRALELDGQSVKAHFFLGQCQLEMESYDEAIANLQRAYSLAKEQRLNFGDDIPSALRIAKKKRWNSIEERRIHQESELHSYLSRLIAAERERELEECQRNHEGDEDDSHVRAQQACIEAKHDKYMADMDELFSQVDEKRKKRDISDYLCGKISFELMREPCITPSGITYDRKDIEEHLQRVGHFDPVTRSPLTQEQLIPNLAMKEVIDAFISENGWVEDY
notes: CHIP (STUB1), human, SCA48-associated U-box variant P228S; source: PD-10 desalting for mass photometry, size exclusion for ubiquitination assays; not shown: His tag, C-terminal, kept
Q: Does B2 bind [2]?
A: binds

B3: CHIP R241W, recombinant, C-terminal His tag (enzyme, human, UniProt Q9UNE7-1 1-303, looked up)
chain: MKGKEEKEGGARLGAGGGSPEKSPSAQELKEQGNRLFVGRKYPEAAACYGRAITRNPLVAVYYTNRALCYLKMQQHEQALADCRRALELDGQSVKAHFFLGQCQLEMESYDEAIANLQRAYSLAKEQRLNFGDDIPSALRIAKKKRWNSIEERRIHQESELHSYLSRLIAAERERELEECQRNHEGDEDDSHVRAQQACIEAKHDKYMADMDELFSQVDEKRKKRDIPDYLCGKISFELMWEPCITPSGITYDRKDIEEHLQRVGHFDPVTRSPLTQEQLIPNLAMKEVIDAFISENGWVEDY
notes: CHIP (STUB1), human, SCA48-associated U-box variant R241W; source: PD-10 desalting for mass photometry, size exclusion for ubiquitination assays
Q: Does B3 bind [2]?
A: binds

B4: CHIP A67T, recombinant, C-terminal His tag (enzyme, human, UniProt Q9UNE7-1 1-303, looked up)
chain: MKGKEEKEGGARLGAGGGSPEKSPSAQELKEQGNRLFVGRKYPEAAACYGRAITRNPLVAVYYTNRTLCYLKMQQHEQALADCRRALELDGQSVKAHFFLGQCQLEMESYDEAIANLQRAYSLAKEQRLNFGDDIPSALRIAKKKRWNSIEERRIHQESELHSYLSRLIAAERERELEECQRNHEGDEDDSHVRAQQACIEAKHDKYMADMDELFSQVDEKRKKRDIPDYLCGKISFELMREPCITPSGITYDRKDIEEHLQRVGHFDPVTRSPLTQEQLIPNLAMKEVIDAFISENGWVEDY
notes: CHIP (STUB1), human, SCA48-associated TPR-domain variant A67T; source: PD-10 desalting for mass photometry, size exclusion for ubiquitination assays
Q: Does B4 bind [2]?
A: binds

B5: CHIP P57L, recombinant, C-terminal His tag (enzyme, human, UniProt Q9UNE7-1 1-303, looked up)
chain: MKGKEEKEGGARLGAGGGSPEKSPSAQELKEQGNRLFVGRKYPEAAACYGRAITRNLLVAVYYTNRALCYLKMQQHEQALADCRRALELDGQSVKAHFFLGQCQLEMESYDEAIANLQRAYSLAKEQRLNFGDDIPSALRIAKKKRWNSIEERRIHQESELHSYLSRLIAAERERELEECQRNHEGDEDDSHVRAQQACIEAKHDKYMADMDELFSQVDEKRKKRDIPDYLCGKISFELMREPCITPSGITYDRKDIEEHLQRVGHFDPVTRSPLTQEQLIPNLAMKEVIDAFISENGWVEDY
notes: CHIP (STUB1), human, SCA48-associated TPR-domain variant P57L; source: PD-10 desalting for mass photometry, size exclusion for ubiquitination assays
Q: Does B5 bind [2]?
A: binds

B6: CHIP F37L, recombinant, C-terminal His tag (enzyme, human, UniProt Q9UNE7-1 1-303, looked up)
chain: MKGKEEKEGGARLGAGGGSPEKSPSAQELKEQGNRLLVGRKYPEAAACYGRAITRNPLVAVYYTNRALCYLKMQQHEQALADCRRALELDGQSVKAHFFLGQCQLEMESYDEAIANLQRAYSLAKEQRLNFGDDIPSALRIAKKKRWNSIEERRIHQESELHSYLSRLIAAERERELEECQRNHEGDEDDSHVRAQQACIEAKHDKYMADMDELFSQVDEKRKKRDIPDYLCGKISFELMREPCITPSGITYDRKDIEEHLQRVGHFDPVTRSPLTQEQLIPNLAMKEVIDAFISENGWVEDY
notes: CHIP (STUB1), human, SCA48-associated TPR-domain variant F37L; source: PD-10 desalting for mass photometry, size exclusion for ubiquitination assays
Q: Does B6 bind [2]?
A: binds

B7: CHIP G33S, recombinant, C-terminal His tag (enzyme, human, UniProt Q9UNE7-1 1-303, looked up)
chain: MKGKEEKEGGARLGAGGGSPEKSPSAQELKEQSNRLFVGRKYPEAAACYGRAITRNPLVAVYYTNRALCYLKMQQHEQALADCRRALELDGQSVKAHFFLGQCQLEMESYDEAIANLQRAYSLAKEQRLNFGDDIPSALRIAKKKRWNSIEERRIHQESELHSYLSRLIAAERERELEECQRNHEGDEDDSHVRAQQACIEAKHDKYMADMDELFSQVDEKRKKRDIPDYLCGKISFELMREPCITPSGITYDRKDIEEHLQRVGHFDPVTRSPLTQEQLIPNLAMKEVIDAFISENGWVEDY
notes: CHIP (STUB1), human, SCA48-associated TPR-domain variant G33S; source: PD-10 desalting for mass photometry, size exclusion for ubiquitination assays; not shown: His tag, C-terminal, kept
Q: Does B7 bind [2]?
A: binds

B8: CHIP I53T, recombinant, C-terminal His tag (enzyme, human, UniProt Q9UNE7-1 1-303, looked up)
chain: MKGKEEKEGGARLGAGGGSPEKSPSAQELKEQGNRLFVGRKYPEAAACYGRATTRNPLVAVYYTNRALCYLKMQQHEQALADCRRALELDGQSVKAHFFLGQCQLEMESYDEAIANLQRAYSLAKEQRLNFGDDIPSALRIAKKKRWNSIEERRIHQESELHSYLSRLIAAERERELEECQRNHEGDEDDSHVRAQQACIEAKHDKYMADMDELFSQVDEKRKKRDIPDYLCGKISFELMREPCITPSGITYDRKDIEEHLQRVGHFDPVTRSPLTQEQLIPNLAMKEVIDAFISENGWVEDY
notes: CHIP (STUB1), human, SCA48-associated TPR-domain variant I53T; source: PD-10 desalting for mass photometry, size exclusion for ubiquitination assays
Q: Does B8 bind [2]?
A: binds
